In the supplement of paper PMC9170038:

Test system: MS2 coat protein
Experiment: apparent KD of MS2 coat protein; designed switch direction (-1 OFF switch, 1 ON switch): -1; higher = weaker reporter binding
Procedure, shortened: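 SNAP-549-labelled MS2 coat protein was titrated, doubling from 0.7 or 1.5 nM to 3 µM, over designed RNA switches transcribed on Illumina chips by stalled E. coli RNA polymerase. Runs were done without input, with 200 uM small-molecule ligand, or with an oligonucleotide input. Apparent KD is the per-design median over clusters of curve-fitted normalised fluorescence.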

[1] = input ligand: microRNA oligo, concentration not stated
[2] = Eterna round: R95, input ligand: FMN 200 uM
[3] = Eterna round: R95, input ligand: microRNA oligo, concentration not stated
[4] = Eterna round: R95, input ligand: none

For “AGUGUGUGGCAGGAUAUUCUAAUGAUUAGGACAGAAGAAGGGUCUACAUGAGGAUCACCCAUGUAAGCGGUUGA [Ex6 #38] (Eterna round: R97, puzzle: Exclusion 6)”, the “apparent KD of MS2 coat protein” value (input ligand: FMN 200 uM) was 211 nM and the “apparent KD of MS2 coat protein” value (input ligand: none) was 82.3 nM.

In the case of “CGGUGCAGGCUGCGGUCCUACAUGAGGAUCACCCAUGUGGUCCGGUGGCGUGGGUCGCCGGACUUGGCUCGUCUUGU [salish99_S_TOV1_R5_015] (Eterna round: R97, puzzle: Sensor, turn-off variant 1)”, the “apparent KD of MS2 coat protein” value (input ligand: FMN 200 uM) was 56.8 nM and the “apparent KD of MS2 coat protein” value (input ligand: none) was 75.6 nM.

For “GUCAUGUUAGGAUAUCUAACAUGUGACUUCGGUCACUGUCCAGAGAAGGAACAUGAGGAUCACCCAUGUUGGAC [Ex4-3: 56] (Eterna round: R96, puzzle: Exclusion 4)”, the “apparent KD of MS2 coat protein” value (input ligand: FMN 200 uM) was 16.5 nM, the “apparent KD of MS2 coat protein” value [1] was 13.9 nM and the “apparent KD of MS2 coat protein” value (input ligand: none) was 18.3 nM.

With “UGUUGGCGAGGAUAUACAUGAGGAUCACCCAUGUGAGAGAAAAAAGUGAGGAAGAAAAGUAGAAGGCGCUGACU [salish99_ex3_r3_044] (puzzle: Exclusion 3)” the “apparent KD of MS2 coat protein” value [2] was 254 nM, the “apparent KD of MS2 coat protein” value [3] was 44 nM and the “apparent KD of MS2 coat protein” value [4] was 51.8 nM.

“GUGUACAGAGGAUAUACUCAUGGAGUUACGAAAGUAACUUCACAUGAGGAUCACCCAUGUAGAAGGCUGUACAC [Dot plot directed v9] (puzzle: Exclusion 2)” was tested, and the “apparent KD of MS2 coat protein” value [3] was 341 nM.

With “CCGUUCCGUGUAGGAUAUUGGCCCACCACGGGCCGAGAAGGACAUGAGGAUCACCCAUGUAUGCUAUUAUCGCGCGUGGCGCCC [Design 100] (Eterna round: R96, puzzle: Exclusion NG 1)” the “apparent KD of MS2 coat protein” value (input ligand: FMN 200 uM) was 148 nM, the “apparent KD of MS2 coat protein” value [1] was 14.8 nM and the “apparent KD of MS2 coat protein” value (input ligand: none) was 24.2 nM.

In the case of “UUCCUCAUAACAUGAGGAUCACCCAUGUAUUAUUUGAUAACUGAGGAUAUACUUUUAAUGUUUAUGUAGAAGGCAGAUACAGUU [JR_ExcNG3_Sub016] (Eterna round: R96, puzzle: Exclusion NG 3)”, the “apparent KD of MS2 coat protein” value [1] was 89.6 nM.

In the case of “GCAUGGAAAGUGAGGAUAUACCACUGGAUACAGUGGUAGAAGGCACAUGAGGAUCACCCAUGUUUCUACCAUGC [Fiskers BMX 4 - 40] (puzzle: Brourd's mod of Exclusion 4)”, the “apparent KD of MS2 coat protein” value [3] was 12.7 nM.

“CUUAGACAUGAGGAUCACCCAUGUGAGGAUAUGAAAUGAAUUAAGUAUGAAGUAUGAAUCAGAAGGCACAUAUG [Mat - Mod of Hyphema D33] (puzzle: Exclusion 1)” was tested, and the “apparent KD of MS2 coat protein” value [2] was 63 nM, the “apparent KD of MS2 coat protein” value [3] was 95.8 nM and the “apparent KD of MS2 coat protein” value [4] was 107 nM.

With “UUAAUUAAUUGCGCAAGAUCACAUGAGGAUCACCCAUGUAUAUAGGAUAUCAGCUCGUUUAGAGCUGAGAAGGAUAUACAGCGC [ExNG3/3-A2] (Eterna round: R96, puzzle: Exclusion NG 3)” the “apparent KD of MS2 coat protein” value (input ligand: FMN 200 uM) was 1320 nM, the “apparent KD of MS2 coat protein” value [1] was 536 nM and the “apparent KD of MS2 coat protein” value (input ligand: none) was 488 nM.

For “CCCAGUUAGAGAGGAUAUCGUACAUGAGGAUCACCCAUGUAAUAAAUGAGGAUUUCGGGUGUCUGCGAGAAGGCUCGGAUAGGC [Ostracism 31 - Jieux - Exclusion NG 2] (Eterna round: R96, puzzle: Exclusion NG 2)”, the “apparent KD of MS2 coat protein” value (input ligand: FMN 200 uM) was 105 nM, the “apparent KD of MS2 coat protein” value [1] was 32.9 nM and the “apparent KD of MS2 coat protein” value (input ligand: none) was 47 nM.

In the case of “CGUGGACAUAACAAGCUUUACAUGAGGAUCACCCAUGUGAUCAUGCUCGUCUUAUGGUCCACGAAUUAAUUAAUUAA [Stov1/6-C1] (Eterna round: R97, puzzle: Sensor, turn-off variant 1)”, the “apparent KD of MS2 coat protein” value (input ligand: FMN 200 uM) was 19.5 nM and the “apparent KD of MS2 coat protein” value (input ligand: none) was 19.9 nM.

With “AGUCGGCGAGGAUAUACAUGAGGAUCACCCAUGUGAGAGAUAAAAGUGAGUUAGACAAGUAGAAGGCGCUGACA [JL Lego Mod 9] (Eterna round: R96, puzzle: Exclusion 3)” the “apparent KD of MS2 coat protein” value [1] was 46.4 nM.

“GAAAGGGCAGGAUAUGCAGAGAGAGAGAGAGAGAGAAAAAAACAUGAGGAUCACCCAUGUAGAAGGGCCGAAAG [salish99-ex2-06] (Eterna round: R96, puzzle: Exclusion 2)” was tested, and the “apparent KD of MS2 coat protein” value (input ligand: FMN 200 uM) was 31 nM, the “apparent KD of MS2 coat protein” value [1] was 27.8 nM and the “apparent KD of MS2 coat protein” value (input ligand: none) was 34.2 nM.

“AAUACACAUGAGGAUCACCCAUGUUAGGAUAUUAGCGGGCAGACAGACAGACAGACGAUGAGAAGGAACAGGAA [Excls1-VII] (puzzle: Exclusion 1)” was tested, and the “apparent KD of MS2 coat protein” value [2] was 23.3 nM, the “apparent KD of MS2 coat protein” value [3] was 22.3 nM and the “apparent KD of MS2 coat protein” value [4] was 27.7 nM.

“CCCGGGUUAGGAUAUGGGCCCGGGCCCGAAAGGGCCCGGGCCCAGAAGGGACAUGAGGAUCACCCAUGUCCGGG [-53.1, -49.1 kcal, 20% A] (Eterna round: R97, puzzle: Exclusion 4)” was tested, and the “apparent KD of MS2 coat protein” value (input ligand: FMN 200 uM) was 22.1 nM and the “apparent KD of MS2 coat protein” value (input ligand: none) was 19.9 nM.

In the case of “UUUAAACAUGAGGAUCACCCAUGUUAGGAUAUACGCAUGCAGACACACACGGAUGCAAGUAGAAGGAACCAUGC [Design #7] (Eterna round: R97, puzzle: Exclusion 1)”, the “apparent KD of MS2 coat protein” value (input ligand: FMN 200 uM) was 23.6 nM and the “apparent KD of MS2 coat protein” value (input ligand: none) was 22.9 nM.

For “GUCAUCAAUCAUGGGAUAAACAUGAGGAUCACCCAUGUAUACAAGUUUUUUGCUCGUCUUAUAAUAAGAUUGAUGAC [Antenna 5 - Jieux - Sensor, turn-off variant 1] (Eterna round: R97, puzzle: Sensor, turn-off variant 1)”, the “apparent KD of MS2 coat protein” value (input ligand: FMN 200 uM) was 13.7 nM and the “apparent KD of MS2 coat protein” value (input ligand: none) was 15.9 nM.

“GGAUCGAAAGUGAGGAUAUGCUGGUCCUUGGAUCAGCAGAAGGCACAUGAGGAUCACCCAUGUGGGAACGGUCC [Eli bmx4 4.46] (Eterna round: R97, puzzle: Brourd's mod of Exclusion 4)” was tested, and the “apparent KD of MS2 coat protein” value (input ligand: FMN 200 uM) was 1440 nM and the “apparent KD of MS2 coat protein” value (input ligand: none) was 298 nM.

In the case of “CUGAGGUAGCGGUCCUAUGACAUGAGGAUCACCCAUGUACCUUGCUUCGAGCUAUUUGCUCGUCUUAUGAUUCUCGG [Mat - Sensor v3 - turn-off var 1 - JL Mod - D34] (puzzle: Sensor v3, turn-off variant 1)”, the “apparent KD of MS2 coat protein” value [2] was 538 nM, the “apparent KD of MS2 coat protein” value [3] was 483 nM and the “apparent KD of MS2 coat protein” value [4] was 493 nM.

With “AGAUAACAUGAGGAUCACCCAUGUGAGGAUAUUUACUCAAGAGCUUCGGCUCUCAGGUGAAGAAGGCGCAAUGA [EX1 #55] (Eterna round: R97, puzzle: Exclusion 1)” the “apparent KD of MS2 coat protein” value (input ligand: FMN 200 uM) was 44.7 nM and the “apparent KD of MS2 coat protein” value (input ligand: none) was 45.7 nM.

With “GACUGGACAGGAUAUGUUCUUGAGCACUUGAGGAUCACCCAAGUCAUCAAGAACUCAGGCACAGAAGGGUUUAUGG [salish99_ex5_r4_010] (Eterna round: R97, puzzle: Exclusion 5)” the “apparent KD of MS2 coat protein” value (input ligand: FMN 200 uM) was 23.3 nM and the “apparent KD of MS2 coat protein” value (input ligand: none) was 12.1 nM.

In the case of “UUGUGCACGCUGCGGUCCUACAUGAGGAUCACCCAUGUGGUCUGGUGGCGUGGGUCGCCGGACUUGGCUCGUCUUGG [salish99_S_TOV1_R5_026] (Eterna round: R97, puzzle: Sensor, turn-off variant 1)”, the “apparent KD of MS2 coat protein” value (input ligand: FMN 200 uM) was 16.9 nM and the “apparent KD of MS2 coat protein” value (input ligand: none) was 16.9 nM.

In the case of “UCGGCGCGAGGAUAUACGUUUGCGCGUUUUCGUUUUCGCGUACAUGAGGAUCACCCAUGUAGAAGGCGCGCCGC [Apr-15 SS2-15] (puzzle: Exclusion 2)”, the “apparent KD of MS2 coat protein” value [3] was 14 nM.

In the case of “CUUUUUUCUGUAAGGAUAUAGCCCGCGAGAUGUGGCUAGAAGGUACAUGAGGAUCACCCAUGUGUGUCCACAUU [Eternabot (L1) Solution 55] (Eterna round: R97, puzzle: Brourd's mod of Exclusion 4)”, the “apparent KD of MS2 coat protein” value (input ligand: FMN 200 uM) was 141 nM and the “apparent KD of MS2 coat protein” value (input ligand: none) was 46.8 nM.
